From article PMC2430192, “Identification of immune genes and proteins involved in the response of bovine mammary tissue to Staphylococcus aureus infection” (BMC Veterinary Research, 2008)
Several values for one entry are separate records, joined by “and”; a condition that tells them apart may be missing. Equal entries are not always repeated.

B1: Recombinant bovine PTX3 (rtnPTX3) produced in Trichoplusia ni insect cells (natural protein, UniProt Q0VCG9 18-382, looked up)
chain: ENSDDYELMYVNLDNEIDNGLHPTEDPTPCDCSRENSEWDKLFTMLENSQMREGMLLQATDVMLRGELQKLQAELGRLEGSLQKLCGPEAPSETRLARALDDLLQASRDAGRRLARLEDAGALRPQEEAGRALGAVLEELRRTRADLRAVQGWAASRWLPAGCETAILFPMRSKKIFASVHPVTPMKLETFSACIWVKATEVLNKTVLFSYGTKRNPYEIQLYLSYRSIMLVVGGEENRLVADAVISLGTWTHLCSTWDSKKGHMALWVNGDSVATAVDMATGHVVPEGGILQIGQEKNGCCVGGGFDETLAFSGRLTGFNIWEGVLSNEEIREAGGAESCHIRGNVVGWGVTEIQPHGGAQYVY
notes: predicted size of the mature protein 40.2 kDa; The vector pIEx5 supplies the signal peptide of adipokinetic hormone for secretion; A few vector-derived residues at the N-terminus cannot be excluded; Two bands of 43 and 45 kDa, possibly differing in glycosylation at N221; also called Pentraxin-3; source: Trichoplusia ni (High Five) insect cells, transiently transfected with pIEX5-PTX3, secreted …
B2: Pentraxin-3 (PTX3), endogenous in bovine milk whey (natural protein, bovine (endogenous in milk whey), UniProt Q0VCG9 18-382, looked up)
chain: B1 chain
notes: Pentraxin-3 (PTX3), bovine, secreted into milk; predicted Mw of the mature protein 40.2 kDa; one potential N-linked glycosylation site (Asn221); source: endogenous, milk whey from udder quarters infected with S. aureus
B3: S100 calcium-binding protein A12 (S100A12), endogenous in bovine milk whey (natural protein, bovine (endogenous in milk whey), UniProt P79105 1-92, looked up)
chain: MTKLEDHLEGIINIFHQYSVRVGHFDTLNKRELKQLITKELPKTLQNTKDQPTIDKIFQDLDADKDGAVSFEEFVVLVSRVLKTAHIDIHKE
notes: 92 amino acids, predicted size 10.7 kDa; also called calgranulin C; source: endogenous, milk whey from udder quarters infected with S. aureus

Tests used:
[1] = biological target: the molecule itself; experiment: SEC; gel permeation chromatography of purified rtnPTX3 in solution; result not shown
human C1q = biological target: T1, human C1q (human, UniProt P02745 23-245; P02746 28-253; P02747 29-245); experiment: ELISA; 500 ng human C1q coated on 96-well plates in PBS pH 7.4 with 1 mM CaCl2 and 1 mM MgCl2; rtnPTX3 (12.5 ng/well, two preparations) added in PBS-Tween 20, 1 h at 37°C; bound rtnPTX3 detected with rabbit antibody raised to rPTX3; settings: both partners purified
T1 construct: Complement C1q subcomponent subunit A, human; Complement C1q subcomponent subunit B, human; Complement C1q subcomponent subunit C, human; also called C1q component of the human complement system; source: bought: Merck; copies: + +

[2] = biological target: the molecule itself; experiment: SDS-PAGE and immunoblot; culture supernatant of transfected Trichoplusia ni cells, reducing conditions; results not shown
[3] = biological target: the molecule itself; experiment: SDS-PAGE and immunoblot; 25 μl of milk whey from infected udder quarters, run under reducing conditions; detected with immunoaffinity-purified antibodies raised to rS100A12 or rPTX3

T1 sequence (P02745 23-245, chain 1 of 3): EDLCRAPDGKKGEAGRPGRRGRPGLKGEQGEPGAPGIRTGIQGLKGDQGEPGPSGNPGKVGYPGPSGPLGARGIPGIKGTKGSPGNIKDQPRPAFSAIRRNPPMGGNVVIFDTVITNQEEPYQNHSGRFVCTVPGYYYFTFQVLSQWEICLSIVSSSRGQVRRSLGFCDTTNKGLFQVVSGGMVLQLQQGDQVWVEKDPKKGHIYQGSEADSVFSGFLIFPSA
T1 sequence (P02746 28-253, chain 2 of 3): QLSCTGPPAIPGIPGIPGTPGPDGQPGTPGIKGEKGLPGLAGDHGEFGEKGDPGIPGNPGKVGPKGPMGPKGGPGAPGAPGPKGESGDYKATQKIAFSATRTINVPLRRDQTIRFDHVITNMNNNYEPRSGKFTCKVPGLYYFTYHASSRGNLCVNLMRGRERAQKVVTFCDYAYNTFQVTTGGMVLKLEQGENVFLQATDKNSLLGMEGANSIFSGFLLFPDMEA
T1 sequence (P02747 29-245, chain 3 of 3): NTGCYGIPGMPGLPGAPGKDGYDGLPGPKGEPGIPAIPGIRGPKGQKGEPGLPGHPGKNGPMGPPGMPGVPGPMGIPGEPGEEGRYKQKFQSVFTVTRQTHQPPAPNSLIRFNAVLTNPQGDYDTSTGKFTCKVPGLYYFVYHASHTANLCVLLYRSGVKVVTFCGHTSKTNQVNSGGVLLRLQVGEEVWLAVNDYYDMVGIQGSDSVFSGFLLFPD

Binder	stoichiometry N [1]	binding result (human C1q)	stoichiometry N [2]	stoichiometry N [3]
B1	10	binds	2	
B2				2
B3				2 and 3
